# Experimental data from article PMC1904298.
# System: ϕC31 integrase (Streptomyces phage ϕC31?)
# Experiment: EMSA
row,Substance,K half
1,"attB C-2G, 72 bp fragment",55.7 nM
2,"attB C-2A:G+2T, 72 bp fragment",56.7 nM
3,"attB G-16T, 72 bp fragment",66 nM
4,"attB G-16T:G+16A, 72 bp fragment",61.3 nM
5,"attB G+16A, 72 bp fragment",53.3 nM
6,"attB C+15G, 72 bp fragment",72.7 nM
7,"attB T-15C, 72 bp fragment",68.3 nM
8,"attB G+2C, 72 bp fragment",58.3 nM
9,"attB wt, 72 bp fragment",61.3 nM
